# Measurements from the DeepSol protein solubility set.
# Test: soluble on expression in E. coli; label from the status in PepcDB or PDB records
row,Sequence,soluble on expression in E. coli
1,MAVEDEGLRVFQSVKIKIGEAKNLPSYPGPSKMRDCYCTVNLDQEEVFRTKIVEKSLCPFYGEDFYCEIPRSFRHLSFYIFDRDVFRRDSIIGKVAIQKEDLQKYHNRDTWFQLQHVDADSEVQGKVHLELRLSEVITDTGVVCHKLATRIVECQGLPIVNGQCDPYATVTLAGPFRSEAKKTKVKRKTNNPQFDEVFYFEVTRPCSYSKKSHFDFEEEDVDKLEIRVDLWNASNLKFGDEFLGELRIPLKVLRQSSSYEAWYFLQPRDNGSKSLKPDDLGSLRLNVVYTEDHVFSSDYYSPLRDLLLKSADVEPVSASAAHILGEVCREKQEAAVPLVRLFLHYGRVVPFISAIASAEVKRTQDPNTIFRGNSLASKCIDETMKLAGMHYLHVTLKPAIEEICQSHKPCEIDPVKLKDGENLENNMENLRQYVDRVFHAITESGVSCPTVMCDIFFSLREAAAKRFQDDPDVRYTAVSSFIFLRFFAPAILSPNLFQLTPHHTDPQTSRTLTLISKTVQTLGSLSKSKSASFKESYMATFYEFFNEQKYADAVKNFLDLISSSGRRDPKSVEQPIVLKEGFMIKRAQGRKRFGMKNFKKRWFRLTNHEFTYHKSKGDQPLYSIPIENILAVEKLEEESFKMKNMFQVIQPERALYIQANNCVEAKDWIDILTKVSQCNQKRLTVYHPSAYLSGHWLCCRAPSDSAPGCSPCTGGLPANIQLDIDGDRETERIYSLFNLYMSKLEKMQEACGSKSVYDGPEQEEYSTFVIDDPQETYKTLKQVIAGVGALEQEHAQYKRDKFKKTKYGSQEHPIGDKSFQNYIRQQSETSTHSI,soluble
2,MSLQRKVFPKCQWVGVSEMKGIRPTQEDAVICYPFAPNGIHIFSVLDGHGGSKTSNFAACDLFNNLSKLEKVDENTLSGSVSATLKSLKAQHFNDGSTMALAVITPNRHIFSCHLGDSRTIVVRRDGSISHFTKDHKPDEKSEVKRVLSQHGFILKHRVMGLLAVSSSLGDFEVVGIGHQPVIREWVIDESDKWLVICCDGVFDVLTNEEVGKICQNATSASALAYDIKNIAFELLSQDNISCIAVDLENMAFSNEGHHHHHH,soluble
3,TQETFPPKYLHYDEETSHQLLCDKCPPGTYLKQHCTAKWKTVCAPCPDHYYTDSWHTSDECLYCSPVCKELQYVKQECNRTHNRVCECKEGRYLEIEFCLKHRSCPPGFGVVQAGTPERNTVCKRCPDGFFSNETSSKAPCRKHTNCSVFGLLLTQKGNATHDNICSGNSESTQKCGIDVTLCEEAFFRFAVPTKFTPNWLSVLVDNLPGTKVNAESVERIKRQHSSQEQTFQLLKLWKHQNKDQDIVKKIIQDIDLCENSVQRHIGHANLTFEQLRSLMESLPGKKVGAEDIEKTIKACKPSDQILKLLSLWRIKNGDQDTLKGLMHALKHSKTYHFPKTVTQSLKKTIRFLHSFTMYKLYQKLFLEMIGNQVQSVKISCL,not soluble
4,MITLWENRDKWEEDSNLHGLLLTIIKNKALNYLAHLQVRLRAEEEINSHSQRELDLRISTLEACEPDAIFDSEIQHIVQKALKRMPNQSRQIFILSRYQNTPNKKIAEQLGISVKSVEFHITKALKILRTELKDYLVSILF,not soluble
5,SLEKRQGLEDIGRVRATIKNEFPSLTLLTQDWGDWDETYKFSQNHNQEYLEANVPSLTTLSKSTKIDFLALYDLNAIELFKGAYHPDMEREVNLHSTPSIRSLVASVLKTNREKKGLFKTDEGLLALVARPILTSEGRGPSHGVIIMGRFLSQLLLSSVGKKCPIPFELFIQDDKRLSAPEKALFAKLSATAPRFTPVFHQGFVYQTYPDIE,not soluble
6,MNNALYNQIRIFQSIAREGNISAAARKLEITPPSVSNALRLLEEHIGHPLFVRTTRRIELTETGQQLLEQTAAAVETLEKSLEIIRDQNQEPSGAVRITLSRFAYLLILKPAMAAFCQQYPGIQLEISVYDGTVNIIEERFDLGIRFGDILEGGVVARPLMKPFREGLYASSAYLAEYGVPAMPADLHHHRLIGYRFITNNRILPLILNDHGEQLTVEMPGQLISNDIDVMADGIRHGLGIGRLFEPILQLQPDREQFIPVMEDYWKTYPPVYLYYPKNAGRTKRVKALIDFLIMYAADDAEKIGSSR,not soluble
7,MSLSKQETEKVRVFALGGVGEIGKNMYGIEVDEDIIVIDAGLMFPDDDMLGVDIVIPDVSYLVENEERVRGIILTHGHEDHIGGLSYVLKKINVPVYATKLTLGLVEEKLKEAGIHRHAELRLIDSNSRIKLGNTPVSFFRVSHSIPDCVGVCVETSQGAIVHTGDFKFDQTPVDGKHADIGKMAAIGQKGVLCLMSDSTNAERPGTTKSEAEAGKGIKDVFARTKGRLIVTSFASNVHRIQQVIQAASATNRKLAVVGKSMVRVISIAGKLGYLKIPKDLLIDMDEVNKHKPEKVAILTTGSQGEPMSALTRMAKGAHRHITITPNDTVIIAATAIPGNETSVSAVIDQLYRIGAEVIYGSQAVHASGHGSQEELKLMLNLMRPKFFLPIHGEIRMQHAHQQLALQVGIKKERIYIVEKGEVIEFTKQQARRGPKVPSGHVLIDGLGVGDVGNIVLRDRRLLSKDGILVVVVTLNKKTNTIVSGPNIISRGFVYVRESEELLEKSNELVTSILQKCVTENVNEWSSLKSNIREGLSRYLFEKTKRRPMILPIIMEEGHHHHHH,soluble
8,QRKISNIGAQSSMKLEDIKTPSASLTTTLAGRLAGVVAVQRTGEPGKDAADIWIRGIATPNTATPLILVDGVERAFNDIDPEDIESLTTLKDASATAVYGVRGANGVIIIKTKPGK,not soluble
9,MGSDKIHHHHHHEDDNIRPFGKDVEAGAPGVVSEIKVKNIPGGAVISYQLPDNPDIMYVRARYKVGQGKEMEARASVYANELTVNGFGDMNEHEVELSCVDRMENEGATTVAVVTPLKPSVLTTFESLEVNATFGGVYVNFKNPEKASLSIHVVTTDSLNQPYEAHVQYTQAEKGPFYVRGFKAEERMFDIYVVDRWGNSSDTLYNVLTPYEETRLNKKLFYPYILPNDVACNAWGGNLAYAWNDDYTPALFVHSPGGDTFPMWFTFDMGVTAKLSRYKFYHLFMEEHAFQRGNLKTWEVWGRTDTPPADGSWDGWTKLMDCESHKPSGLPVGQHTAEDWEYLQAGEDFEFPAEAPPVRYIRFKVLETWGGMDFIHFTEFTFWGNVISNN,not soluble
10,TPDIQMTQSPSSLSASVGDRVTITVQASQDIIKHLNWYQQTPGKAPKLLIYEASNLQAGVPSRFSGSGSGTDYTFTISSLQPEDIATYYCQQYQSLPYTFGQGTKLQIT,soluble
11,MGSDKIHHHHHHMAETSIEWTDVTWNPVAGCTVLTAGCTNCYAMRMAARLEAMGVEKYAGLTRKSGGRAKWTGRIFLDRKALSIPASWSKPRRVFVNSMSDLFHSDVPTDFISDVWKVMAQTPRHTYQILTKRPDRMVEIVPGLAKLRNVWLGTSVEDARVIYRIDKLRQVPAAVRFVSFEPLIGSVSGAGLRNIHWAIVGGESGPKARSMDPAWVDEIESMCRDQGAAFFFKQWGGKNKKAAGRTLNGRLYDEMPAPSMP,not soluble
12,MATGDGKSVMVVGVDDSEQSTYALEWTLDRFFAPYAPNYPFKLFIVHAKPNAVSAVGLAGPGTAEVVPYVDADLKHTAAKVVEKAKAICQSRSVHGAVIEVFEGDARNILCEVVDKHHASILVVGSHGYGAIKRAVLGSTSDYCAHHAHCSVMIVKKPKIKV,soluble
13,DVVVTQTPLSLPVSLGDQASISCRSSEVIVTRNGYTPIEWYLQKPGQSPKLLIYKAYKRFPGVPDRFSGSGSGTDFTLKISRVEAEDLGVYYCFDGSTVPPKFGGGTKLEIKRADAAPTVSIFPPSSEQLTSGGASVVCFLNNFYPKDINVKWKIDGSERQNGVLNSWTDQDSKDSTYSMSSTLTLTKDEYERHNSYTCEATHKTSTSPIVKSFNRDEC,soluble
14,MGSDKIHHHHHHMLLDHIFICVDENAPEADELVFLGLAEGTPNRHRGQGTANRRFFLPGVMLELLWVADLNELQSVTTRTLGLADRFAARKDGGSPFGFVFKPKNPRIGNSCPFPFRSYHPAYLPETLDMKVADATPRIEPLYVFIDFLPASCSTAQHHPCGIERLTSVHVTFPAQGAPSPVARMIDSLPGMSARVGREHLLELCFDDGKRGVRHDFRNRLPLIIRW,not soluble
15,MSLSSVKDFPKIKAIRSFIIGGVGSGGDYHNVKGGHWLIDSDISTPASKWEQYKKSRTSWGINVLGSFLVEIEATDGTVGFATGFGGPPACWLVHQHFERFLIGADPRNTNLLFEQMYRASMFYGRKGLPIAVISVIDLALWDLLGKVRNEPVYRLIGGATKERLDFYCTGPEPTAAKAMGFWGGKVPLPFCPDDGHEGLRKNVEFLRKHREAVGPDFPIMVDCYMSLNVSYTIELVKACLDLNINWWEECLSPDDTDGFALIKRAHPTVKFTTGEHEYSRYGFRKLVEGRNLDIIQPDVMWLGGLTELLKVAALAAAYDVPVVPHASGPYSYHFQISQPNTPFQEYLANSPDGKSVLPVFGDLFIDEPIPTKGYLTTADLDKPGFGLTINPAARAKLIPSDYLFKVPEIPQNLSTGKEIKSNEQPDKPNGTLDSLAAKVESLTTSTSSEGHHHHHH,soluble
16,MGHHHHHHSHAQHNYVISLTTEQKRRKHITEEFGKQNIPFEFFDAITPDIIEETAKKFNITLDRSPKAKLSDGEIGCALSHIVLWDLALENNLNYINIFEDDIHLGENAKELLEIDYISDDIHVLKLEANGKMFFKQPKSVKCDRNVYPMTVKQSGCAGYTVTAKGAKYLLELVKNKPLDVAVDSLV,soluble
17,MSLNTPVEFNLPDSIELEREEVEEDLLTSGDEILLSYSSYIPPKLHSMTSHLQLRVDFFVNLLQFTRANFIYKVSPQVKLKLLESYEILNCSLSLSSYLSSDTDLTTQWHRVLLSEEVTEEELMLHQLKRFPELFGKFLAEIDEPLRSSSDIKFKVAAADLVNCVIYHSCLERGESEYRCNQLNLDLTEVGDDLPWFINFSIPDSLNKILLHLFYSFEDGNVPDEYHDKLLEIIKSLYYMCKQSDVWYAVKGSNAYEAGYQGFNLNSTLSNHLTWIQILLKIGRSVDALNIADFYHDLSGLVETLSSFDYEKAHPLYEEYFTKYGYQFSKTLFTTVIEQGKINDLFSRFPSHHDDLVRFFDEYPQYGHVSWIGNIFDQQYNAAAEVLVSVSSPDAAKKLDLNQLQVRLSIAKLSALAEEPILNMDLLNTIQSGLDLIDSQKKAAELAGEHTSLSKRYLETESHYQSILEKLKTNIVLSEYELVGIYTVLDDVTAFAKALHFLSLIKTIPEDSRQFLVSMIWRKCILFNDWNHTSDDLSTALYATLLAFFKEEYYRAGIPLPHVPKLTAPISKDTLSEQLFAGVECGNLLLDGAEADTSALSAVQTDMESRIRFLIGSAHSEAGASCVVNYETNTVDEGHHHHHH,soluble
18,MASSFDNQMDQDGMCSVYSAQPSETNCSINEVLAKEIIAVNETPDDQADSSIYPIPKSETNVSASEGFQPCQDINQFNLSVYSAPKSETPVTMNEKFERCKDLMNVLDYSVYSMPPSEANVTMNVASFSEYTALASETNVTMADVLKNVAQDLASEHTAKSAHPTFDTTAYVERLQAELGIPDSKVIGLECSNFSNAKIIDSIECLHQLDKFQPIPVDFDQNPDFGKTAKSVESYLLRSSNASSIHHEI,not soluble
19,MGSDKIHHHHHHGIKNGLKEEPKINVGIKGGFNSSMYFTSRLELDGERMEDVQNNYKVGYFAAMFFRVHMKRHFIQPEIMYNIYKGEIAFNKNQNKENTLPELAKLNSTIHSLELPILYGYSFVKSRPYGMALFIGPKLEYVWKHKTSEEFEGFGYSGIKEELHPINISSVIGLGVNIANIFFDFRYEIGLTNISKSIIYKKDTDGIMSQEKGIFINRHRNVLSFSLGVIF,not soluble
